Assay results taken from patent US7011975 (UNIVERSITY OF GEORGIA RESEARCH FOUNDATION, dated 2006).

Biological target: Cry1Ac toxin (Bacillus thuringiensis, UniProt P05068 29-623, rhodamine label (5(6)-TAMRA SE) in the cell-staining assay; coupled to CNBr-activated Sepharose 4B in the affinity assay)
Test: rhodamine-labeled toxin staining of fixed Sf21 cells, confocal microscopy

B1: Manduca sexta 120 kDa aminopeptidase N APN1a expressed in Sf21 cells transfected with pHSP120 (receptor)
chain: PSYRLPTTTRPRHYAVTLTPYFDVVPAGVSSLTTFSFDGEVTIYISPTQANVNEIVLHCNDLTIQSLRVTYVSGNSEVDITATGQTFTCEMPYSFLRIRTSTPLVMNQEYIIRSTFRGNLQTNMRGFYRSWYVDRTGKRWMATTQLQPGHARQAFPCYDEPGFKATFDITMNREADFSPTISNMPIRATTTLTNGRISETFFTTPLTSTYLLAFIVSHYQVISNNNNAARPFRIYARNNVGSQGDWSLEMGEKLLLAMENYTAIPYYTMAQNIDMKQAAIPDFSAGAMENWGLLTYREALILYDPLNSNHHYRQRVANIVSHEIAHMWFGNLVTCAWWDNLWLNEGFARFYQYYLTATVDPELGYEIRFIPEQLQVAMFSDSVDSAHALTDTSVNDPVAVSAHFSTITYARGAAILRMTQHLLSYDTFVKGLRQYLRARQFDVAEPYHLFSALDAAAAEDNALAAYTGITIDAYFRTWSEKAGHPLLSVTVDHETGRMTLVQARWERNTGVSRFPGLWHIPITWTRAGAPDFENLKPSQVMTGQSLVIDRGTRGQEWVIFNKQVSGFYRVNYDNTTWGLITRALRSANRTVIHELSRSQIVDDVFQLARSGVMSYQRALNILSYLRFEDAYAPWLSAISGFNWVIRRFAHDAANLQTLQNQIIGLSEAVVARLGFTEVSGGTYMTDLQRLHVMQFLCNVGHQQCIDTGRQNFLNWRNGSFIPANMRPWVYCTGLRYGSAEDFNYFWNRYIVEDLSNEKVVMLEAAGCTRDQASLEKFLNAIVSGNDDVRPQDHSSALSSAITSNDVNTMRAFDWLTKNVDQITRTLGSITSPLNTITSRLLTEAQMTQVQTWLDANRNTIGAAYNTGVNGIATSRANLQWSANRMSEFLRFFETGFVDDVPSEATTVAPPAETTVTPSTFPPTEAPATTPAPG
modifications: GPI anchor at the C-terminus; heterogeneously glycosylated (residues not stated)
notes: also called expressed APN; expressed 120 kDa APN
Does B1 bind?
Result: no binding (tested: 1 µg/ml)
